Assay results from US20040248211A1, “ICAM-related protein” (priority 1992, published 2004).

How the values were obtained:
[1] = test system: Fraction C cells (quiescent CD3 positive PBL); test: IL-2 production by T lymphocytes after prepulse on antibody; assay type: cell-based, human; details: 18 hours prepulse on immobilized antibody, then anti-CD3 OKT3
Protocol: Human PBL were obtained by Ficoll-Hypaque centrifugation of whole peripheral blood. Adherent cells were depleted by incubation on plastic and nonadherent cells were subjected to discontinuous centrifugation on Percoll gradients to further separate subsets of lymphocytes into medium buoyant density (fraction B) and high buoyant density (fraction C) cell populations. Prior to cell addition, wells were coated with monoclonal antibodies by addition of 0.1 ml each antibody at 5 ug/ml in PBS per microtiter well. Following antibody addition, all wells were incubated overnight at 4 degrees and each well was washed free of unbound antibody by PBS rinsing prior to addition of cells. Each cell fraction was then incubated for 18 hours on either ICR-1.1, ICR-4.2 or control antibodies to human major Histocompatibility Complex Class I (MHC Class I). For these experiments 2×10^5 cells per well were added in a volume of 0.2 ml RPMI-1640 containing 10% FCS to individual wells of a 96 well flat bottom microtiter plate (Costar, Cambridge, Mass.). After 18-20 hours incubation at 37° C., the cells were collected from the microtiter wells and washed twice in RPMI-1640 media containing 10% FCS and adjusted to 1×10^6 per ml in RPMI-1640 containing 10% FCS. […]

ICAM-R peptides = test: Multipin peptide ELISA; assay type: binding, human; details: hybridoma supernatant
Protocol: The first method for mapping linear epitopes recognized by the ICAM-R specific antibodies of the invention utilized the Multipin Peptide Synthesis System (Chiron Mimotopes Pty. Ltd., Victoria, Australia) which places ten amino acid peptides representing overlapping segments of the protein of interest on the surface of a series of plastic pins. A modified ELISA test is performed to determine binding of a monoclonal antibody to each peptide.
The ELISA to determine binding of the monoclonal antibodies to ICAM-R peptides was run as follows. […] The pins were transferred to plates containing ABTS substrate solution [0.5 mg/ml ABTS, 0.01% weight/volume H2O2 in substrate buffer (17.9 g/L Na2HPO4H2O, 16.8 g/L citric acid monohydrate, pH 4.0)] for 45 minutes at 20° C. with agitation and then the plates were read at 410/495 nm.
Relative reactivity with individual pins was determined after normalizing results for differences in immunoglobulin concentrations in anti-ICAM-R and control hybridoma supernatants and reactivities of positive controls between assays. Mouse IgG levels for each supernatant had been determined by antibody capture ELISA as follows. […] Antibody concentrations of culture supernatant were determined by fitting measured optical densities to the standard curve of the isotype matched control.

PBL = test: Pre-incubation on plate-bound antibody then SEA proliferation; assay type: cell-based, human; details: cells moved to clean wells; SEA 10 pg/ml, 3 days
Protocol: The minimum time required for plate-bound anti-ICAM-R to inhibit SEA-induced proliferation was also determined. PBL were pre-incubated on plate-bound ICR-4.2, ICR-1.1 or isotype-matched anti-HLA-I control antibodies B-H9 (IgG1) and I0T2 (IgG2) with or without SEA (10 ρg/ml) for 3, 5 and 7 hours. PBL were then transferred to clean wells and cultured in the presence of SEA (10 pg/ml) for 3 days.

B1: ICR-1.1: anti-ICAM-R monoclonal antibody, IgG2a, domain 1, ATCC HB 11053 (antibody, V domains shown)
VH: QVQLQQSGAELAKPGASVKMSCKASGYTFTVYWMHWVKQRPGQGLEWIGYINPNTDYTEYNQRFQDKATLTADKSSSTAYMQLSSLTSEDSAVYYCARWGGNSYGLDYWGQGTSVTVSS
VL: QIVLTQSPALMSASPGEKVTMTCSASSSVSYIYWYQQKPRSSPKPWIYLTSNLASGVPARFSGSGSGASYSLTISIMEAEDAATYYCQQWKSIPLTFGAGTKLELK
- IL-2 produced relative to prepulse on negative control antibodies [1]: less than 50%
- reactivity with overlapping ten amino acid ICAM-R peptides (ICAM-R peptides): two overlapping peptides spanning amino acids 13-23
- SEA proliferation after 3 hours pre-incubation on immobilized antibody (PBL): significantly reduced proliferation
